Data on 6 molecules can be found in US20030133912A1 (published 2003).

Assay [1] deals with T1, Human coxsackie-adenovirus receptor (CAR) expressed on CHO cells (human, UniProt P78310 20-365).
T1 construct: whole, on cells; also called hCAR; AdhCAR-transfected CHO cells
T1 sequence: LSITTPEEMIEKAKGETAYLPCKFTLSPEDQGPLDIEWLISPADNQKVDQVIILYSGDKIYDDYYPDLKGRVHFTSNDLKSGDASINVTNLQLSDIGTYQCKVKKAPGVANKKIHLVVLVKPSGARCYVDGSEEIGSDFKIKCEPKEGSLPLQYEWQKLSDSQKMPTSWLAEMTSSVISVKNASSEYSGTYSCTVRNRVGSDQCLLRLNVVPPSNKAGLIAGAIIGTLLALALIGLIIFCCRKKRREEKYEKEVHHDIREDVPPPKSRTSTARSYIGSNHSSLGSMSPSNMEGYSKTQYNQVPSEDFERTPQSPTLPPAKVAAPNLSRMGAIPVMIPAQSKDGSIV
Briefly: 3H-labelled virus binding to CHO cells with or without hCAR, 1 h on ice.

The target of assay [2] is T2, Soluble human transferrin receptor, purified extracellular domain (human, UniProt P02786 89-760).
T2 construct: extracellular domain; Gift material; also called hTfR; soluble hTfR
T2 sequence (P02786 89-760): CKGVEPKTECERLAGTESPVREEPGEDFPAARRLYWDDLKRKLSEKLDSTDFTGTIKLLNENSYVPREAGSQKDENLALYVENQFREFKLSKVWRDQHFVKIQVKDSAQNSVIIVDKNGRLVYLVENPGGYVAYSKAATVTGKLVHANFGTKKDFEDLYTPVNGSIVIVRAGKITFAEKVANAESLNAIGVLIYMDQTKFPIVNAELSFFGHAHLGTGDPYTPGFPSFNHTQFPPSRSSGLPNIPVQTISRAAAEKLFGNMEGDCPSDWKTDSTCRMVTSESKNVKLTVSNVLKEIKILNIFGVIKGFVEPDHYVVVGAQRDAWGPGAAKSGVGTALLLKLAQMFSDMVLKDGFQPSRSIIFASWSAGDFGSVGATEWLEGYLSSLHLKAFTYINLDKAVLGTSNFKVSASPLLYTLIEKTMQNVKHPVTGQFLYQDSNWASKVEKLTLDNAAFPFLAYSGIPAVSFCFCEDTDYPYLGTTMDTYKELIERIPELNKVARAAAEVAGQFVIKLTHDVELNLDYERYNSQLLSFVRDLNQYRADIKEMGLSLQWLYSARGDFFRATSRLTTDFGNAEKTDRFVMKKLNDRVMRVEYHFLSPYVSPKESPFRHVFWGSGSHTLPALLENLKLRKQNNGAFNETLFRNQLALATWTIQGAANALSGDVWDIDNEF
Briefly: phage display panning on immobilised hTfR extracellular domain, three rounds.
From the text: Enzyme-linked immunosorbent assay (ELISA) plates were coated with soluble hTfR, and bound phage were eluted by a low-pH buffer. Eluted phage were amplified in E. coli K91 and subsequently screened again for binding to the immobilized hTfR. In separate experiments, bound phage were eluted with purified transferrin holoenzyme. Three rounds of screening-amplification were done for each type of elution.
Phage screening. Ten microliters of amplified nonapeptide phage library (a generous gift from Al Jesaitis, Montana State University) was screened against the purified extracellular domain of hTfR (kindly provided by Martin Lawrence, Harvard University) coated on 96-well microtiter plates in 100 μl of 0.05 M carbonate buffer (pH 9.6). In the first panning, hTfR was coated at 100 μg/ml. Subsequent pannings were done with decreasing concentrations of hTfR for increased stringency (10 and 1 μg/ml for the second and third pannings, respectively). Bound phage were eluted with low-acid buffer (0.1 M glycine, pH 2.2) or ligand (iron-loaded human transferrin; Sigma-Aldrich) in TBS buffer (50 mM Tris-Cl, pH 7.5; 150 mM NaCl). After three successive rounds of panning and amplification, clones were picked and sequenced as described elsewhere.

For assay [3], the target named is T1, Human coxsackie-adenovirus receptor ….
The target of assay [4] is T2, Soluble human transferrin receptor, …. Briefly: pull-down of fiber lysate with soluble hTfR on anti-hTfR antibody 128.1 beads, Western blot with 4D2.5.

B1: Adenovirus type 30 (Ad30) fiber on wild-type Ad30 virus (other)
chain: MSKRLRVEDDFNPVYPYGYARNQNIPFLTPPFVSSDGFKNFPPGVLSLKLADPIAITNGDVSLKVGGGLTVEQDSGNLSVNPKAPLQVGTDKKLELALAPPFDVRDNKLAILVGDGLKVIDRSISDLPGLLNYLVVLTGKGIGNEELKNDDGSNKGVGLCVRIGEGGGLTFDDKGYLVAWNNKHDIRTIWTTLDPSPNCKIDIEKDSKLTLVLTKCGSQILANVSLIIVNGKFKILNNKTDPSLPKSFNIKLLFDQNGVLLENSNIEKQYLNFRSGDSILPEPYKNAIGFMPNLLAYAKATTDQSKIYARNTIYGNIYLDNQPYNPVVIKITFNNEADSAYSITFNYSWTKDYDNIPFDSTSFTFSYIAQE
notes: Tested as 3H-labelled wild-type Ad30 virions; also called Ad30 wildtype; Ad30 (VR-273)
On to B1, for which, in assay [1], the binding result is “no binding”.

B2: Chimeric Ad5/30 fiber (Ad5 tail, Ad30 shaft and knob) on virus Ad5GFPf30 (other)
chain: MKRARPSEDTFNPVYPYDTETGPPTVPFLTPPFVSPNGFQESPPGVLSLKLADPIAITNGDVSLKVGGGLTVEQDSGNLSVNPKAPLQVGTDKKLELALAPPFDVRDNKLAILVGDGLKVIDRSISDLPGLLNYLVVLTGKGIGNEELKNDDGSNKGVGLCVRIGEGGGLTFDDKGYLVAWNNKHDIRTIWTTLDPSPNCKIDIEKDSKLTLVLTKCGSQILANVSLIIVNGKFKILNNKTDPSLPKSFNIKLLFDQNGVLLENSNIEKQYLNFRSGDSILPEPYKNAIGFMPNLLAYAKATTDQSKIYARNTIYGNIYLDNQPYNPVVIKITFNNEADSAYSITFNYSWTKDYDNIPFDSTSFTFSYIAQE
notes: also called Ad5RSVeGFPf30; AdGFPf30
As to B2, the binding result in assay [1] is “no binding”.

With AIAKKHKWN [Phage displaying peptide AIAKKHKWN], the binding result in assay [2] was “binds”.

B3: Adenovirus type 5 (Ad5) fiber, wild type (other)
chain: MKRARPSEDTFNPVYPYDTETGPPTVPFLTPPFVSPNGFQESPPGVLSLRLSEPLVTSNGMLALKMGNGLSLDEAGNLTSQNVTTVSPPLKKTKSNINLEISAPLTVTSEALTVAAAAPLMVAGNTLTMQSQAPLTVHDSKLSIATQGPLTVSEGKLALQTSGPLTTTDSSTLTITASPPLTTATGSLGIDLKEPIYTQNGKLGLKYGAPLHVTDDLNTLTVATGPGVTINNTSLQTKVTGALGFDSQGNMQLNVAGGLRIDSQNRRLILDVSYPFDAQNQLNLRLGQGPLFINSAHNLDINYNKGLYLFTASNNSKKLEVNLSTAKGLMFDATAIAINAGDGLEFGSPNAPNTNPLKTKIGHGLEFDSNKAMVPKLGTGLSFDSTGAITVGNKNNDKLTIWTTPAPSPNCRLNAEKDAKLTLVLTKCGSQILATVSVLAVKGSLAPISGTVQSAHLIIRFDENGVLLNNSFLDPEYWNFRNGDLTEGTAYTNAVGFMPNLSAYPKSHGKTAKSNIVSQVYLNGDKTKPVTLTITLNGTQETGDTTPSAYSMSFSWDWSGHNYINEIFATSSYTFSYIAQE
notes: also called Ad5GFP; Ad5RSVeGFP
Consider B3, for which the “fold increase in bound particles with CAR expression” value in assay [3] turned out to be 3.6 fold. Also, the binding result in assay [4] is “no binding”.

On to KWKLHGHIK [Phage displaying peptide KWKLHGHIK], for which, in assay [2], the binding result is given as “binds”.

For the molecule GKGPKWMR [Phage displaying peptide GKGPKWMR], the binding result in assay [2] is recorded as “binds”.
